Measurements: publication PMC4841250, “Structure and stability of recombinant bovine odorant-binding protein: I. Design and analysis of monomeric mutants” (PeerJ, 2016)

Target: the molecule itself
Assay: SEC; gel filtration on Superdex-75 PC 3.2/30, buffered solution (20 mM Na-phosphate, pH 7.8) without OCT; calibrated with protein standards; monomer and dimer

B1: recombinant wild type bovine odorant-binding protein (natural protein)
chain: AQEEEAEQNLSELSGPWRTVYIGSTNPEKIQENGPFRTYFRELVFDDEKGTVDFYFSVKRDGKWKNVHVKATKQDDGTYVADYEGQNVFKIVSLSRTHLVAHNINVDKHGQTTELTELFVKLNVEDEDLEKFWKLTEDKGIDKKNVVNFLENEDHPHPE
notes: also called bOBP; bOBPwt; source: E. coli BL21(DE3), purified (Ni-agarose, HisGraviTrap columns)
In the case of B1, the “stoichiometry N” value is reported as 2.
